From US20220119490A1 (Genentech, published 2022)

B1: CD226 (receptor, human, UniProt Q15762 19-336, looked up)
cell-surface-expressed binding partner: EEVLWHTSVPFAENMSLECVYPSMGILTQVEWFKIGTQQDSIAIFSPTHGMVIRKPYAERVYFLNSTMASNNMTLFFRNASEDDVGYYSCSLYTYPQGTWQKVIQVVQSDSFEAAVPSNSHIVSEPGKNVTLTCQPQMTWPVQAVRWEKIQPRQIDLLTYCNLVHGRNFTSKFPRQIVSNCSHGRWSVIVIPDVTVSDSGLYRCYLQASAGENETFVMRLTVAEGKTDNQYTLFVAGGTVLLLLFVISITTIIVIFLNRRRRRERRDLFTESWDTQKAPNNYRSPISTSQPTNQSMDDTREDIYVNYPTFSRRPKTRV
notes: expressed on cells; also called CD226 expressed on cells
B2: EDAR extracellular domain (receptor, human, UniProt Q9UNE0 27-187, looked up)
chain: EYSNCGENEYYNQTTGLCQECPPCGPGEEPYLSCGYGTKDEDYGCVPCPAEKFSKGGYQICRRHKDCEGFFRATVLTPGDMENDAECGPCLPGYYMLENRPRNIYGMVCYSCLLAPPNTKECVGATSGASANFPGTSGSSTLSPFQHAHKELSGQGHLATA
notes: extracellular domain; Soluble query, streptavidin tetramer
B3: PVR (receptor, human, UniProt P15151 21-343, looked up)
soluble query ectodomain: WPPPGTGDVVVQAPTQVPGFLGDSVTLPCYLQVPNMEVTHVSQLTWARHGESGSMAVFHQTQGPSYSESKRLEFVAARLGAELRNASLRMFGLRVEDEGNYTCLFVTFPQGSRSVDIWLRVLAKPQNTAEVQKVQLTGEPVPMARCVSTGGRPPAQITWHSDLGGMPNTSQVPGFLSGTVTVTSLWILVPSSQVDGKNVTCKVEHESFEKPQLLTVNLTVYYPPEVSISGYDNNWYLGQNEATLTCDARSNPEPTGYNWSTTMGPLPPFAVAQGAQLLIRPVDKPINTTLICNVTNALGARQAELTVQVKEGPPSEHSGISRN
modifications: biotinylated
notes: extracellular domain; also called poliovirus receptor; monomeric or tetrameric PVR ectodomain
B4: BTN3A3 extracellular domain (receptor)
chain: not shown
notes: as for B2
B5: FLRT2 (receptor, human, UniProt O43155 36-541, looked up)
soluble query ectodomain: CPSVCRCDRNFVYCNERSLTSVPLGIPEGVTVLYLHNNQINNAGFPAELHNVQSVHTVYLYGNQLDEFPMNLPKNVRVLHLQENNIQTISRAALAQLLKLEELHLDDNSISTVGVEDGAFREAISLKLLFLSKNHLSSVPVGLPVDLQELRVDENRIAVISDMAFQNLTSLERLIVDGNLLTNKGIAEGTFSHLTKLKEFSIVRNSLSHPPPDLPGTHLIRLYLQDNQINHIPLTAFSNLRKLERLDISNNQLRMLTQGVFDNLSNLKQLTARNNPWFCDCSIKWVTEWLKYIPSSLNVRGFMCQGPEQVRGMAVRELNMNLLSCPTTTPGLPLFTPAPSTASPTTQPPTLSIPNPSRSYTPPTPTTSKLPTIPDWDGRERVTPPISERIQLSIHFVNDTSIQVSWLSLFTVMAYKLTWVKMGHSLVGGIVQERIVSGEKQHLSLVNLEPRSTYRICLVPLDAFNYRAVEDTICSEATTHASYLNNGSNTASSHEQTTSHSMGSPF
modifications: biotinylated
notes: extracellular domain; also called soluble query
B6: SLITRK3 extracellular domain (receptor, human, UniProt O94933 29-654, looked up)
chain: TPIPLIEDSEEIDEPCFDPCYCEVKESLFHIHCDSKGFTNISQITEFWSRPFKLYLQRNSMRKLYTNSFLHLNNAVSINLGNNALQDIQTGAFNGLKILKRLYLHENKLDVFRNDTFLGLESLEYLQADYNVIKRIESGAFRNLSKLRVLILNDNLIPMLPTNLFKAVSLTHLDLRGNRLKVLFYRGMLDHIGRSLMELQLEENPWNCTCEIVQLKSWLERIPYTALVGDITCETPFHFHGKDLREIRKTELCPLLSDSEVEASLGIPHSSSSKENAWPTKPSSMLSSVHFTASSVEYKSSNKQPKPTKQPRTPRPPSTSQALYPGPNQPPIAPYQTRPPIPIICPTGCTCNLHINDLGLTVNCKERGFNNISELLPRPLNAKKLYLSSNLIQKIYRSDFWNFSSLDLLHLGNNRISYVQDGAFINLPNLKSLFLNGNDIEKLTPGMFRGLQSLHYLYFEFNVIREIQPAAFSLMPNLKLLFLNNNLLRTLPTDAFAGTSLARLNLRKNYFLYLPVAGVLEHLNAIVQIDLNENPWDCTCDLVPFKQWIETISSVSVVGDVLCRSPENLTHRDVRTIELEVLCPEMLHVAPAGESPAQPGDSHLIGAPTSASPYEFSPPGGPVPLS
notes: extracellular domain; Streptavidin tetramer in cell assay; ECD-Fc prey in the variant screen
B7: LILRA5 extracellular domain (receptor)
chain: not shown
notes: as for B2
B8: BTN3A1 extracellular domain (receptor)
chain: not shown
notes: as for B2
B9: TIGIT (receptor, human, UniProt Q495A1 22-244, looked up)
cell-surface-expressed binding partner: MMTGTIETTGNISAEKGGSIILQCHLSSTTAQVTQVNWEQQDQLLAICNADLGWHISPSFKDRVAPGPGLGLTLQSLTVNDTGEYFCIYHTYPDGTYTGRIFLEVLESSVAEHGARFQIPLLGAMAATLVVICTAVIVVVALTRKKKALRIHSVEGDLRRKSAGQEEWSPSAPSPPGSCVQAEAAPAGLCGEQRGEDCAELHDYFNVLSYRSLGNCSFFTETG
notes: expressed on cells; also called TIGIT expressed on cells

Columns and labels:
PVR [1] = molecular target: B3; assay: cell surface binding of monomeric or streptavidin-tetramerised PVR ectodomain to CD226-expressing cells, normalized fluorescence intensity
[2] = molecular target: T1, LILRB1 expressed on cells (human, UniProt Q8NHL6 24-650); assay: cell surface interaction assay: ECD tetramer on transfected cells (FIG. 5N)
T1 construct: whole, on cells; C-terminally tagged in the co-IP; also called LILRB1-FLAG

CD96 = molecular target: T2, CD96 (human, UniProt P40200); assay: cell surface binding of monomeric or streptavidin-tetramerised PVR ectodomain to CD96-expressing cells, normalized fluorescence intensity
T2 construct: expressed on cells; also called CD96 expressed on cells
T2 sequence (cell-surface-expressed binding partner, looked up): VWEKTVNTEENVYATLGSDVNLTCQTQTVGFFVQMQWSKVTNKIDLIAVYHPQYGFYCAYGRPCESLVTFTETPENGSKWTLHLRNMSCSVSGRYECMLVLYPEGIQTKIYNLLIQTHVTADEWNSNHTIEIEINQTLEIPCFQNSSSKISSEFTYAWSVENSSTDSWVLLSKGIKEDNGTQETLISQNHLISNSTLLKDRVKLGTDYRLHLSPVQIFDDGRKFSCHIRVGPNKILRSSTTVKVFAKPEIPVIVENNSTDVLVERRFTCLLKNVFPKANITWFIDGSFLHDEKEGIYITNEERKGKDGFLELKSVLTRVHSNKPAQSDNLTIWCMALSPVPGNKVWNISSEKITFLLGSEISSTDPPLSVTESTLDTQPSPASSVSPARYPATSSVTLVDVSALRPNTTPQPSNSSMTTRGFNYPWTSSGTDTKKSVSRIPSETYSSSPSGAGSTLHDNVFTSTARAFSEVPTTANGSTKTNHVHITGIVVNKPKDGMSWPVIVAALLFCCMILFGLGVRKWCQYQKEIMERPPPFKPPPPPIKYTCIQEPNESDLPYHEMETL

[3] = molecular target: T3, LRRC4B expressed on cells (human, UniProt Q9NT99 36-713); assay: cell surface interaction assay: streptavidin-tetramerized biotinylated ECD on transfected cells, immunofluorescence
T3 construct: whole, on cells; C-terminally tagged in the co-IP; also called NGL-3; LRRC4B-FLAG
T3 sequence (looked up): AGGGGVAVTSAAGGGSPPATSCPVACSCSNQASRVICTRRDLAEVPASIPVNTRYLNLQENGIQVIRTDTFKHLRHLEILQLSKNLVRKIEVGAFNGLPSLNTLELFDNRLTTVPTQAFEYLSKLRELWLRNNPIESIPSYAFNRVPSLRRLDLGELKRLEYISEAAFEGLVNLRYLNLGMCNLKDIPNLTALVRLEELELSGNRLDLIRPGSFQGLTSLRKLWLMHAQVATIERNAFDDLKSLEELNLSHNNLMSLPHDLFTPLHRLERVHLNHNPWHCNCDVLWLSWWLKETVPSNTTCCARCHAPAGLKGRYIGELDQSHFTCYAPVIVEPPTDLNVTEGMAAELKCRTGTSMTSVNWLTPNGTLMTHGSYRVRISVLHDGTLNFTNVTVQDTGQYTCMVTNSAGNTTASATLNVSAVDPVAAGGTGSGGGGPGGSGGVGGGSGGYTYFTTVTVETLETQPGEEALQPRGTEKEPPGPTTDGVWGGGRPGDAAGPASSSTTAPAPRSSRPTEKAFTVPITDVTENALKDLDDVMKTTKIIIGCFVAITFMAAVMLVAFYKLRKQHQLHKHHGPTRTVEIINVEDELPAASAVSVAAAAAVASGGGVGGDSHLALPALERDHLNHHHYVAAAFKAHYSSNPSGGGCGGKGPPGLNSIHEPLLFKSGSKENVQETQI

UNC5A = molecular target: T4, UNC5A (human, UniProt Q6ZN44); assay: cell surface interaction assay: query ECD tetramerised with fluorescent streptavidin on transfected cells, immunofluorescence
T4 construct: expressed on cells; also called UNC5A expressed on cells
T4 sequence (cell-surface-expressed binding partner, looked up): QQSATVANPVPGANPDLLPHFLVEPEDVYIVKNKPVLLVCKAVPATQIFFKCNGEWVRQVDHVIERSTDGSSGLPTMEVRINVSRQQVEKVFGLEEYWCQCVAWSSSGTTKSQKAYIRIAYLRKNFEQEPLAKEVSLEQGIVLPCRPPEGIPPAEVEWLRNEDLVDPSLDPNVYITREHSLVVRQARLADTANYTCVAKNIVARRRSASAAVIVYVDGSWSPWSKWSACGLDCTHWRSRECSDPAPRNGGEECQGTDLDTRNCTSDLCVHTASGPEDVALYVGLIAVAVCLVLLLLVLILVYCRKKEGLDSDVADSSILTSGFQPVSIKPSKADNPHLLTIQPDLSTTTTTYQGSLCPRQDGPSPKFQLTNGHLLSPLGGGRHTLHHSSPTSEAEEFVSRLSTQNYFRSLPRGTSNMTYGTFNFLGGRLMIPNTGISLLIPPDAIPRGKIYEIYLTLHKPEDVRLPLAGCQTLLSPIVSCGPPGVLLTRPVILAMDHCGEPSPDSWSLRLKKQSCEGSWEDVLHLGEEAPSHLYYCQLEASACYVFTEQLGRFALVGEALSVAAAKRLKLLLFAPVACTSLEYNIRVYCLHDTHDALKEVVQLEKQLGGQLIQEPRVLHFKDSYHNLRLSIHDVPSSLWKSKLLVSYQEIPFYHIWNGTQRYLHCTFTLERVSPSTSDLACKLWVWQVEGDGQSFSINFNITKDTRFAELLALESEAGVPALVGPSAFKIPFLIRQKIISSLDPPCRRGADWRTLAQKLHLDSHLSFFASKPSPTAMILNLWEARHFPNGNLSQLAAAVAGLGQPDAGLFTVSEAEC

PTPRS expressed on cells = molecular target: T5, PTPRS expressed on cells (human, UniProt Q13332 30-1948); assay: cell surface interaction assay: streptavidin-tetramerized biotinylated ECD on transfected cells, immunofluorescence
T5 construct: whole, on cells; also called receptor-type tyrosine-protein phosphatase S

PTPRD expressed on cells = molecular target: T6, PTPRD expressed on cells (human, UniProt P23468 21-1912); assay: as above
T6 construct: whole, on cells; also called receptor-type tyrosine-protein phosphatase delta

PVR [4] = molecular target: B3; assay: cell surface binding of monomeric or streptavidin-tetramerised PVR ectodomain to TIGIT-expressing cells, normalized fluorescence intensity

T1 sequence (Q8NHL6 24-650): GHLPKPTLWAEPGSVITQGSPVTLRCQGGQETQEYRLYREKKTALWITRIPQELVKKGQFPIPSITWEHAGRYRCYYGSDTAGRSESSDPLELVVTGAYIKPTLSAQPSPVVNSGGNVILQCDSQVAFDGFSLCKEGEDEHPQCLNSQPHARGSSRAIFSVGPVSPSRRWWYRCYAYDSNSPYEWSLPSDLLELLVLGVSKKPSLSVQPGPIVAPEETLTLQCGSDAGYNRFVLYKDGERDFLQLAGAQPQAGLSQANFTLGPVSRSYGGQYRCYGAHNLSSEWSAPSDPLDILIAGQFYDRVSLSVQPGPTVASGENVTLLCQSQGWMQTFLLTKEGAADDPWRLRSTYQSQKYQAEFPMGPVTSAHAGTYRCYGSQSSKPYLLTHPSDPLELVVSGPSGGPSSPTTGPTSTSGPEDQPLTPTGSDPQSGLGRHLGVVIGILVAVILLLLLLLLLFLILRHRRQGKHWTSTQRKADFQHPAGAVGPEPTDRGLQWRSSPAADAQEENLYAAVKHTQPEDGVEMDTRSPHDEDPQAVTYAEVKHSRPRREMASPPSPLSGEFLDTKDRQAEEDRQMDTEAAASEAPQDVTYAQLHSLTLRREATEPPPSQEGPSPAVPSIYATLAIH
T5 sequence (Q13332 30-1948): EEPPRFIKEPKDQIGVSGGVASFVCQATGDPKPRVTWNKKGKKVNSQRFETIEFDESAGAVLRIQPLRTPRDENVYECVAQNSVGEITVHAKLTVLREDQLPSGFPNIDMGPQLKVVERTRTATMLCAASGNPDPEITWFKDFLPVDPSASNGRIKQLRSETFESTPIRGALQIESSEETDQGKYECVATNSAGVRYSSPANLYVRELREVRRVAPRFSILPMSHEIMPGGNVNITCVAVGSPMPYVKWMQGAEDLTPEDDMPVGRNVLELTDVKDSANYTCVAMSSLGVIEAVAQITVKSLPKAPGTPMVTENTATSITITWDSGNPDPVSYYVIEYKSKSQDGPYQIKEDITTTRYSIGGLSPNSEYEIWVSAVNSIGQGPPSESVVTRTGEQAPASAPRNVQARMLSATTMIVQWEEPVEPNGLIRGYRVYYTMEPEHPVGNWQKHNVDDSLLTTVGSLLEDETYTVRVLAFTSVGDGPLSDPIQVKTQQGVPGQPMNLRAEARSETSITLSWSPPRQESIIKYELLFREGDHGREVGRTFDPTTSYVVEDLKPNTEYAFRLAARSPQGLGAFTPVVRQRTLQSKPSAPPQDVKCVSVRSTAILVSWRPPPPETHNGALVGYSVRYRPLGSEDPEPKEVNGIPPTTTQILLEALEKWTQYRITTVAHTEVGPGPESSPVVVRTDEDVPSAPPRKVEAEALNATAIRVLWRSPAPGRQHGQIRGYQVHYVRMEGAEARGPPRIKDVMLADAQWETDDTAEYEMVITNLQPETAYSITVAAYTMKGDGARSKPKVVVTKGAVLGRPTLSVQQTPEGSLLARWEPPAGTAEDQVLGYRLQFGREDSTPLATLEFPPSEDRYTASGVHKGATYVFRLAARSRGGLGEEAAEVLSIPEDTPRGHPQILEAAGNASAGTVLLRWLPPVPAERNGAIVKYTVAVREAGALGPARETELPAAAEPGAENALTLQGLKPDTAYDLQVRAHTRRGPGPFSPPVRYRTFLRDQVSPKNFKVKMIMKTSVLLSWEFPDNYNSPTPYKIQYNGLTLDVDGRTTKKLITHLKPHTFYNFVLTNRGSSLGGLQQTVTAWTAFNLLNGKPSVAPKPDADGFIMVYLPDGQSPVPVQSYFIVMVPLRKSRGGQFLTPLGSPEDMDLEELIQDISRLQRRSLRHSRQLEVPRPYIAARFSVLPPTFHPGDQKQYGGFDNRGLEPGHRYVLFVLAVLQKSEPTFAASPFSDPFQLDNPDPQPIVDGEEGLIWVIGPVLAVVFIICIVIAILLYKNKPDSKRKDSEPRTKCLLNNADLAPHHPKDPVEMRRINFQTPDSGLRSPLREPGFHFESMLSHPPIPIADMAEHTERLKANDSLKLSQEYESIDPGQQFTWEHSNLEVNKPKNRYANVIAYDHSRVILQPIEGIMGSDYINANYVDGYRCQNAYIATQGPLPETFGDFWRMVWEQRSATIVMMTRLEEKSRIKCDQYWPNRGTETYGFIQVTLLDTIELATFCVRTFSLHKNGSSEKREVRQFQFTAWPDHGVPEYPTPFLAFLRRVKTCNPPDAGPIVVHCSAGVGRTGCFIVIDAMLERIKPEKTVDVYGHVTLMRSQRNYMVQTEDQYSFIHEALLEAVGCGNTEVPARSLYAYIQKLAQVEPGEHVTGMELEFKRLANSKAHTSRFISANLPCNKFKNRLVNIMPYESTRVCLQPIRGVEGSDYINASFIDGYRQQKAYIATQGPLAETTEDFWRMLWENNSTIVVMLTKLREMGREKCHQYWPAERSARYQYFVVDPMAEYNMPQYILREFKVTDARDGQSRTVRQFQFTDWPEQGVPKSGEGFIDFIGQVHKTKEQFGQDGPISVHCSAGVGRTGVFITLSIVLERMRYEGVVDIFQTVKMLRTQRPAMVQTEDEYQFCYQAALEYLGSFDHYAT
T6 sequence (P23468 21-1912): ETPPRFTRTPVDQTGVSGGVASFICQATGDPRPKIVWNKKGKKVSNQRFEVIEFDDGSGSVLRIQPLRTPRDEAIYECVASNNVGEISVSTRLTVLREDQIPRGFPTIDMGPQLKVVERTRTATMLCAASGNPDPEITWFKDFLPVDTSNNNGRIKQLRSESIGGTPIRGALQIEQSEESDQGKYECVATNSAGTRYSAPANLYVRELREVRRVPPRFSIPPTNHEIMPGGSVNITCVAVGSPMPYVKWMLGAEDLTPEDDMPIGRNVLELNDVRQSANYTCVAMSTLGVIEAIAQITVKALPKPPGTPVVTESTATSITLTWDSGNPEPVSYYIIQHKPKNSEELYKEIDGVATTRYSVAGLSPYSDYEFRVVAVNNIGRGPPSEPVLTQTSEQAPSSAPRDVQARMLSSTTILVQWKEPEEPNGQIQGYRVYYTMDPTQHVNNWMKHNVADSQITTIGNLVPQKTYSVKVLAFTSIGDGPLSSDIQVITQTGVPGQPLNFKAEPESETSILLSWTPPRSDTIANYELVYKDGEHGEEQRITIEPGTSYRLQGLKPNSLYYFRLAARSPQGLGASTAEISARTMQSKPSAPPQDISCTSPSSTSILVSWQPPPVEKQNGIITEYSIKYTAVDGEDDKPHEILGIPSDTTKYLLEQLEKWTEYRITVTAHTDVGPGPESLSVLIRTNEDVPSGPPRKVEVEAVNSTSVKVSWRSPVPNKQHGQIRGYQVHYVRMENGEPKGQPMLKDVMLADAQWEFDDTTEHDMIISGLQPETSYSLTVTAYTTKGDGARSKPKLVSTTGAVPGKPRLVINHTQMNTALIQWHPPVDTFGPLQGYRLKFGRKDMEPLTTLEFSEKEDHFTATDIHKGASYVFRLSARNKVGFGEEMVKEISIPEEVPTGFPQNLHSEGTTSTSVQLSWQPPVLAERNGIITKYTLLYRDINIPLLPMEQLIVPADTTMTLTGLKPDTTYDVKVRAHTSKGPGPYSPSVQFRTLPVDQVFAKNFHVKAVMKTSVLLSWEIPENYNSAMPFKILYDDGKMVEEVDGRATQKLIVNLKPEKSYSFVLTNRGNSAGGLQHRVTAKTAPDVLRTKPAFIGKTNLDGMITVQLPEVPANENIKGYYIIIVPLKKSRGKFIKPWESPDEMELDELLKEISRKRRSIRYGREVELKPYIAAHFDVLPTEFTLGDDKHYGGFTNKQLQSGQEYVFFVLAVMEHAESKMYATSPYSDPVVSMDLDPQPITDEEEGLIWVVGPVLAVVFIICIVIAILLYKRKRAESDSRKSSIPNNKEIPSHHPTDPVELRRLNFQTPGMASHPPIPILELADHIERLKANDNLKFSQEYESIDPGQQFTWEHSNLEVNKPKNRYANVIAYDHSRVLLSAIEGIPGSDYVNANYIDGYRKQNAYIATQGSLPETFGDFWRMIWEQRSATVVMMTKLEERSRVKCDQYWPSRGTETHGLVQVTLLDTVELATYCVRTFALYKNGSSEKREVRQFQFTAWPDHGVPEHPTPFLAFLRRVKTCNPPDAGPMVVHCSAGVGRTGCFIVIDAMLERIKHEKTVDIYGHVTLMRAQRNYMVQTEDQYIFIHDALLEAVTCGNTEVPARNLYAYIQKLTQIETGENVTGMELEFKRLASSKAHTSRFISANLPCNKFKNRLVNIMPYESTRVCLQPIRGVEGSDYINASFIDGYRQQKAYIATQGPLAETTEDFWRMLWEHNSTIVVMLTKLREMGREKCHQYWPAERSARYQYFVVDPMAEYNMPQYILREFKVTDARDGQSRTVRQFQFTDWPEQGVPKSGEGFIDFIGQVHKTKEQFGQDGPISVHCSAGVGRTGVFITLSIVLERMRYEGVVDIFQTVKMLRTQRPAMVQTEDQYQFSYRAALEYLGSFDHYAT

B1: binds (PVR [1]).

B2: binds [2].

B3: binds (CD96).

B4: binds [3].

B5: binds (UNC5A).

B6: binds (PTPRS expressed on cells); binds (PTPRD expressed on cells).

B7: binds [2].

B8: binds [3].

B9: binds (PVR [4]).
